Test results taken from PMC10682184, “Molecular basis for the catalytic mechanism of human neutral sphingomyelinases 1 (hSMPD2)” (Nature Communications, 2023).

Target: the molecule itself
Experiment: cryo-EM structure; apo hSMPD2 at about 10 mg/mL in 25 mM Hepes pH 7.4, 150 mM NaCl, 2 mM Mg2+, 0.005% LMNG; final map refined with C2 symmetry

B1: human neutral sphingomyelinase 1 (hSMPD2), full length, wild type, twin-Strep tagged (enzyme, UniProt O60906 1-423, looked up)
chain: MKPNFSLRLRIFNLNCWGIPYLSKHRADRMRRLGDFLNQESFDLALLEEVWSEQDFQYLRQKLSPTYPAAHHFRSGIIGSGLCVFSKHPIQELTQHIYTLNGYPYMIHHGDWFSGKAVGLLVLHLSGMVLNAYVTHLHAEYNRQKDIYLAHRVAQAWELAQFIHHTSKKADVVLLCGDLNMHPEDLGCCLLKEWTGLHDAYLETRDFKGSEEGNTMVPKNCYVSQQELKPFPFGVRIDYVLYKAVSGFYISCKSFETTTGFDPHRGTPLSDHEALMATLFVRHSPPQQNPSSTHGPAERSPLMCVLKEAWTELGLGMAQARWWATFASYVIGLGLLLLALLCVLAAGGGAGEAAILLWTPSVGLVLWAGAFYLFHVQEVNGLYRAQAELQHVLGRAREAQDLGPEPQPALLLGQQEGDRTKEQ
notes: human SMPD2 (neutral sphingomyelinase 1), UniProt O60906, full length; cloned from human cDNA into pcDNA3.1(-); In the cryo-EM model the loop preceding TMH1 and residues 403-423 were disordered and not modelled; also called nSMase1; apo hSMPD2; source: HEK293F, transiently transfected, purified (membranes solubilised in LMNG, Strep-Tactin, size-exclusion chromatography)
  stoichiometry N: 2
